From publication PMC6005420, “A low-complexity region in the YTH domain protein Mmi1 enhances RNA binding”

Assays:
[1] = tested on: Mmi1 YTH-ΔC (Schizosaccharomyces pombe); experiment: SwitchSENSE; conditions: 40 mM NaCl; RNA-DNA chimera: 15-mer DSRshort followed by 42 deoxyribonucleotides; FP: 10 mM TAPS pH 8.2, 2 mM PIPES, 50 or 150 mM NaCl, 0.5 mM MgAc, 0.1 mM TCEP, 0.01% Brij-35, room temperature, 0.1 nM RNA; EMSA: 20 mM HEPES pH 7.5, 100 mM …
[2] = tested on: Mmi1 YTH-ΔN (Schizosaccharomyces pombe); experiment: SwitchSENSE; conditions: 40 mM NaCl; RNA-DNA chimera: 15-mer DSRshort followed by 42 deoxyribonucleotides; FP: 10 mM TAPS pH 8.2, 2 mM PIPES, 50 or 150 mM NaCl, 0.5 mM MgAc, 0.1 mM TCEP, 0.01% Brij-35, room temperature, 0.1 nM RNA; EMSA: 20 mM HEPES pH 7.5, 100 mM …
[3] = tested on: Mmi1 YTH-ΔNΔC (Schizosaccharomyces pombe); experiment: SwitchSENSE; conditions: 40 mM NaCl; RNA-DNA chimera: 15-mer DSRshort followed by 42 deoxyribonucleotides; FP: 10 mM TAPS pH 8.2, 2 mM PIPES, 50 or 150 mM NaCl, 0.5 mM MgAc, 0.1 mM TCEP, 0.01% Brij-35, room temperature, 0.1 nM RNA; EMSA: 20 mM HEPES pH 7.5, 100 mM …
Mmi1 YTH [4] = molecular target: T1, Mmi1 YTH (Schizosaccharomyces pombe, UniProt O74958 327-488); experiment: SwitchSENSE; conditions: 40 mM NaCl; RNA-DNA chimera: 15-mer DSRshort followed by 42 deoxyribonucleotides; FP: 10 mM TAPS pH 8.2, 2 mM PIPES, 50 or 150 mM NaCl, 0.5 mM MgAc, 0.1 mM TCEP, 0.01% Brij-35, room temperature, 0.1 nM RNA; EMSA: 20 mM HEPES pH 7.5, 100 mM …
T1 sequence: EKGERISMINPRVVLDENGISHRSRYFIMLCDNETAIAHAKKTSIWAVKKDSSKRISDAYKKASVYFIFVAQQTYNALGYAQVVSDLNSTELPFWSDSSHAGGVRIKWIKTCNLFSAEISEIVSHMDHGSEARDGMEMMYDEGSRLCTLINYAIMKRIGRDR

Mmi1 USR-YTH [5] = molecular target: T2, Mmi1 USR-YTH (Schizosaccharomyces pombe, UniProt O74958 282-488); experiment: SwitchSENSE; conditions: 40 mM NaCl; RNA-DNA chimera: 15-mer DSRshort followed by 42 deoxyribonucleotides; FP: 10 mM TAPS pH 8.2, 2 mM PIPES, 50 or 150 mM NaCl, 0.5 mM MgAc, 0.1 mM TCEP, 0.01% Brij-35, room temperature, 0.1 nM RNA; EMSA: 20 mM HEPES pH 7.5, 100 mM …
T2 sequence: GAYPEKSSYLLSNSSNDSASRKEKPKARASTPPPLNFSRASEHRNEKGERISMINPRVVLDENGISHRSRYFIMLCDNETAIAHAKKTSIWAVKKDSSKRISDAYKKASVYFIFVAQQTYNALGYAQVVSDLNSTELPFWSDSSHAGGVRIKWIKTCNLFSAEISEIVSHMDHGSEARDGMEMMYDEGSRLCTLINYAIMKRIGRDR

Mmi1 USR-YTH [6] = molecular target: T2, Mmi1 USR-YTH; experiment: EMSA; FP: 10 mM TAPS pH 8.2, 2 mM PIPES, 50 or 150 mM NaCl, 0.5 mM MgAc, 0.1 mM TCEP, 0.01% Brij-35, room temperature, 0.1 nM RNA; EMSA: 20 mM HEPES pH 7.5, 100 mM NaCl (plus 30 mM from protein buffer), 1 mM MgAc, 0.1 mM TCEP, 5% glycerol, 50 nM RNA, 15 min; SwitchSENSE: 40 mM NaCl; conditions: protein: recombinant; tags: N-terminal His6, 3C-cleaved; label: 3'-fluorescein
Mmi1 YTH [7] = molecular target: T1, Mmi1 YTH; experiment: fluorescence polarization; 50 mM NaCl; FP: 10 mM TAPS pH 8.2, 2 mM PIPES, 50 or 150 mM NaCl, 0.5 mM MgAc, 0.1 mM TCEP, 0.01% Brij-35, room temperature, 0.1 nM RNA; EMSA: 20 mM HEPES pH 7.5, 100 mM NaCl (plus 30 mM from protein buffer), 1 mM MgAc, 0.1 mM TCEP, 5% glycerol, 50 nM RNA, 15 min; SwitchSENSE: 40 mM NaCl; conditions: protein: recombinant; tags: N-terminal His6, 3C-cleaved; label: 3'-6-carboxyfluorescein
Mmi1 USR-YTH [8] = molecular target: T2, Mmi1 USR-YTH; experiment: as above; conditions: protein: recombinant; tags: N-terminal His6, 3C-cleaved; label: 3'-6-carboxyfluorescein
Mmi1 YTH [9] = molecular target: T1, Mmi1 YTH; experiment: fluorescence polarization; 150 mM NaCl; FP: 10 mM TAPS pH 8.2, 2 mM PIPES, 50 or 150 mM NaCl, 0.5 mM MgAc, 0.1 mM TCEP, 0.01% Brij-35, room temperature, 0.1 nM RNA; EMSA: 20 mM HEPES pH 7.5, 100 mM NaCl (plus 30 mM from protein buffer), 1 mM MgAc, 0.1 mM TCEP, 5% glycerol, 50 nM RNA, 15 min; SwitchSENSE: 40 mM NaCl; conditions: protein: recombinant; tags: N-terminal His6, 3C-cleaved; label: 3'-6-carboxyfluorescein
Mmi1 USR-YTH [10] = molecular target: T2, Mmi1 USR-YTH; experiment: as above; conditions: protein: recombinant; tags: N-terminal His6, 3C-cleaved; label: 3'-6-carboxyfluorescein
Mmi1 USR-YTH [11] = molecular target: T2, Mmi1 USR-YTH; experiment: NMR; FP: 10 mM TAPS pH 8.2, 2 mM PIPES, 50 or 150 mM NaCl, 0.5 mM MgAc, 0.1 mM TCEP, 0.01% Brij-35, room temperature, 0.1 nM RNA; EMSA: 20 mM HEPES pH 7.5, 100 mM NaCl (plus 30 mM from protein buffer), 1 mM MgAc, 0.1 mM TCEP, 5% glycerol, 50 nM RNA, 15 min; SwitchSENSE: 40 mM NaCl; conditions: protein: recombinant; tags: N-terminal His6, 3C-cleaved
Mmi1(301-488) = molecular target: T3, Mmi1(301-488) (Schizosaccharomyces pombe, UniProt O74958 301-488); experiment: X-ray crystallography; FP: 10 mM TAPS pH 8.2, 2 mM PIPES, 50 or 150 mM NaCl, 0.5 mM MgAc, 0.1 mM TCEP, 0.01% Brij-35, room temperature, 0.1 nM RNA; EMSA: 20 mM HEPES pH 7.5, 100 mM NaCl (plus 30 mM from protein buffer), 1 mM MgAc, 0.1 mM TCEP, 5% glycerol, 50 nM RNA, 15 min; SwitchSENSE: 40 mM NaCl; conditions: protein: recombinant; tags: N-terminal His6, 3C-cleaved
T3 sequence: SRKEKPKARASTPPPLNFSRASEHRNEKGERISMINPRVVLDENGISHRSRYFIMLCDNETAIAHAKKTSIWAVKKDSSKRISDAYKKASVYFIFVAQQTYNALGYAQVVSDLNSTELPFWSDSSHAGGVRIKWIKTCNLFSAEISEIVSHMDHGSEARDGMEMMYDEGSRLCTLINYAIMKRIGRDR

Molecule: DSRshort-DNA chimera for SwitchSENSE
- Kd [1]: 160 nM
- Kd [2]: 15000 nM
- Kd [3]: 51000 nM
- Kd (Mmi1 YTH [4]): 16 nM
- Kd (Mmi1 USR-YTH [5]): 0.09 nM

B1: rec8DSR (ssRNA)
RNA: GUGUCUCUUUAAACCUAAAAAGCAC
- binding result (Mmi1 USR-YTH [6]): binds

B2: DSRshort (15-mer) (ssRNA)
RNA: UCUUAAACCAGUCAC
- Kd (Mmi1 YTH [7]): 42 ± 18 nM
- Kd (Mmi1 USR-YTH [8]): 0.14 ± 0.01 nM
- Kd (Mmi1 YTH [9]): 154 ± 85 nM
- Kd (Mmi1 USR-YTH [10]): 6.1 ± 0.7 nM

B3: 7-mer DSR RNA (ssRNA)
RNA: UUAAACC
- binding result (Mmi1 USR-YTH [11]): binds
- binding result (Mmi1(301-488)): binds

B4: 11-mer DSR RNA (ssRNA)
RNA: CUUUAAACCUA
- binding result (Mmi1(301-488)): binds
